Data: patent US20120034160A1 (AbbVie / Abbott, published 2012)

T1: Recombinant Human IL-17 (human, UniProt Q16552 20-155, limits assumed)
T1 construct: bought reagent
T1 sequence (looked up): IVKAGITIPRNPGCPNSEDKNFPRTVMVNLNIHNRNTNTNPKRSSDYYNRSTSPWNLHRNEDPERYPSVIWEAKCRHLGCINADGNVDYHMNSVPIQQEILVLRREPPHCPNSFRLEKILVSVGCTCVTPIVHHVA


How the values were obtained:
Recombinant Human IL-1β = molecular target: T2, Recombinant Human IL-1β (human, UniProt P01584 117-269); assay: Biacore SPR; C-terminal VD
T2 construct: bought reagent; also called IL-1B
Description: (§1) The BIACORE assay (Biacore, Inc, Piscataway, N.J.) determines the affinity of antibodies or DVD-Ig with kinetic measurements of on-rate and off-rate constants. Binding of antibodies or DVD-Ig to a target antigen (for example, a purified recombinant target antigen) was determined by surface plasmon resonance-based measurements with a Biacore® 1000 or 3000 instrument (Biacore® AB, Uppsala, Sweden) using running HBS-EP (10 mM HEPES [pH 7.4], 150 mM NaCl, 3 mM EDTA, and 0.005% surfactant P20) at 25° C. All chemicals were obtained from Biacore® AB (Uppsala, Sweden) or otherwise from a different source as described in the text. For example, approximately 5000 RU of goat anti-mouse IgG, (Fcγ), fragment specific polyclonal antibody (Pierce Biotechnology Inc, Rockford, Ill.) diluted in 10 mM sodium acetate (pH 4.5) was directly immobilized across a CM5 research grade biosensor chip using a standard amine coupling kit according to manufacturer's instructions and procedures at 25 μg/ml. Unreacted moieties on the biosensor surface were blocked with ethanolamine. Modified carboxymethyl dextran surface in flowcell 2 and 4 was used as a reaction surface. Unmodified carboxymethyl dextran without goat anti-mouse IgG in flow cell 1 and 3 was used as the reference surface. For kinetic analysis, rate equations derived from the 1:1 Langmuir binding model were fitted simultaneously to association and dissociation phases of all eight injections (using global fit analysis) with the use of Biaevaluation 4.0.1 software. Purified antibodies or DVD-Ig were diluted in HEPES-buffered saline for capture across goat anti-mouse IgG specific reaction surfaces. Antibodies or DVD-Ig to be captured as a ligand (25 μg/ml) were injected over reaction matrices at a flow rate of 5 μl/min. The association and dissociation rate constants, kₒₙ (M⁻¹s⁻¹) and koff (s⁻¹) were determined under a continuous flow rate of 25 μl/min. Rate constants were derived by making kinetic binding measurements at different antigen concentrations ranging from 10−200 nM. The equilibrium dissociation constant (M) of the reaction between antibodies or DVD-Igs and the target antigen was then calculated from the kinetic rate constants by the following formula: KD=koff/kₒₙ. Binding was recorded as a function of time and kinetic rate constants are calculated.

Recombinant Human IL-17 = molecular target: T1, Recombinant Human IL-17; assay: Biacore SPR; N-terminal VD
Description: as §1

Row | Binder | Kd (Recombinant Human IL-1β) [pM] | koff (Recombinant Human IL-1β) [s⁻¹] | kon (Recombinant Human IL-1β) [M⁻¹ s⁻¹] | Kd (Recombinant Human IL-17) [pM] | koff (Recombinant Human IL-17) [s⁻¹] | kon (Recombinant Human IL-17) [M⁻¹ s⁻¹]
1 | DVD1287 (bispecific antibody, human IgG1, kappa, DVD-Ig, outer AB275, inner AB270, linker set 1; V1 wt hIgG1, V2 kappa; also called DVD1287H; DVD1287L) heavy: not shown light: EIVLTQSPDFQSVTPKEKVTITCRASQNIGSELHWYQQKPDQSPKLLIKYASHSISGVPSRFSGSGSGTDFTLTINGLEAEDAATYYCHQSDTLPHTFGQGTKVDIKRTVAAPDTQVTQSPSSLSASVGDRVTITCITSTDIDVDMNWYQQKPGKPPKLLISQGNTLRPGVPSRFSSSGSGTDFTFTISSLQPEDFATYYCLQSDNLPLTFGQGTKLEIKRTVAAPSVFIFPPSDEQLKSGTASVVCLLNNFYPREAKVQWKVDNALQSGNSQESVTEQDSKDSTYSLSSTLTLSKADYEKHKVYACEVTHQGLSSPVTKSFNRGEC | 1200 | 0.00037 | 310000 | 300 | 4.7e-05 | 160000
2 | DVD1289 (bispecific antibody, human IgG1, kappa, DVD-Ig, outer AB275, inner AB271, linker set 1; V1 wt hIgG1, V2 kappa; also called DVD1289H; DVD1289L) heavy: not shown light: EIVLTQSPDFQSVTPKEKVTITCRASQNIGSELHWYQQKPDQSPKLLIKYASHSISGVPSRFSGSGSGTDFTLTINGLEAEDAATYYCHQSDTLPHTFGQGTKVDIKRTVAAPDTVVTQSPAFLSVTPGEKVTITCITSTDIDVDMNWYQQKPDQPPKLLISQGNTLRPGVPSRFSSSGSGTDFTFTISSLEAEDAATYYCLQSDNLPLTFGQGTKLEIKRTVAAPSVFIFPPSDEQLKSGTASVVCLLNNFYPREAKVQWKVDNALQSGNSQESVTEQDSKDSTYSLSSTLTLSKADYEKHKVYACEVTHQGLSSPVTKSFNRGEC | 1300 | 0.00048 | 370000 | 400 | 5.6e-05 | 140000
3 | DVD1291 (bispecific antibody, human IgG1, kappa, DVD-Ig, outer AB275, inner AB272, linker set 1; V1 wt hIgG1, V2 kappa; also called DVD1291H; DVD1291L) heavy: not shown light: EIVLTQSPDFQSVTPKEKVTITCRASQNIGSELHWYQQKPDQSPKLLIKYASHSISGVPSRFSGSGSGTDFTLTINGLEAEDAATYYCHQSDTLPHTFGQGTKVDIKRTVAAPETTVTQSPSSLSASVGDRVTITCITSTDIDVDMNWYQQKPGKPPKLLISQGNTLRPGVPSRFSSSGSGTDFTFTISSLQPEDFATYYCLQSDNLPLTFGQGTKLEIKRTVAAPSVFIFPPSDEQLKSGTASVVCLLNNFYPREAKVQWKVDNALQSGNSQESVTEQDSKDSTYSLSSTLTLSKADYEKHKVYACEVTHQGLSSPVTKSFNRGEC | 2800 | 0.00058 | 210000 | 48 | 6e-07 | 12000
4 | DVD1590 (bispecific antibody, human IgG1, kappa, V1 wt hIgG1, V2 kappa; also called DVD1590H; DVD1590L) heavy: not shown light: DIQMTQSPSSLSASVGDRVTITCRASSGIISYIDWFQQKPGKAPKRLIYATFDLASGVPSRFSGSGSGTDYTLTISSLQPEDFATYYCRQVGSYPETFGQGTKLEIKRTVAAPSVFIFPPDIQMTQSPSSLSASVGDRVTITCRASGNIHNYLTWYQQTPGKAPKLLIYNAKTLADGVPSRFSGSGSGTDYTFTISSLQPEDIATYYCQHFWSIPYTFGQGTKLQITRTVAAPSVFIFPPSDEQLKSGTASVVCLLNNFYPREAKVQWKVDNALQSGNSQESVTEQDSKDSTYSLSSTLTLSKADYEKHKVYACEVTHQGLSSPVTKSFNRGEC | 190 | 4.6e-05 | 250000 | 1.8 | 7e-06 | 3.8e+06
5 | DVD1592 (bispecific antibody, human IgG1, kappa, V1 wt hIgG1, V2 kappa; also called DVD1592H; DVD1592L) heavy: not shown light: DIQMTQSPSSLSASVGDRVTITCRASSGIISYIDWFQQKPGKAPKRLIYATFDLASGVPSRFSGSGSGTDYTLTISSLQPEDFATYYCRQVGSYPETFGQGTKLEIKRTVAAPSVFIFPPDIQMTQSPSSLSASVGDRVTITCRASGNIHNYLTWYQQTPGKAPKLLIYNAKTLADGVPSRFSGSGSGTDYTFTISSLQPEDIATYYCQHFWSIPYTFGQGTKLQITRTVAAPSVFIFPPSDEQLKSGTASVVCLLNNFYPREAKVQWKVDNALQSGNSQESVTEQDSKDSTYSLSSTLTLSKADYEKHKVYACEVTHQGLSSPVTKSFNRGEC | 7.2 | 4.9e-06 | 690000 | 6.4 | 2e-05 | 3.2e+06
6 | DVD1594 (bispecific antibody, human IgG1, kappa, DVD-Ig, outer AB273, inner AB270, linker set 2; V1 wt hIgG1, V2 kappa; also called DVD1594H; DVD1594L) heavy: not shown light: DIQMTQSPSSLSASVGDRVTITCRASSGIISYIDWFQQKPGKAPKRLIYATFDLASGVPSRFSGSGSGTDYTLTISSLQPEDFATYYCRQVGSYPETFGQGTKLEIKRTVAAPSVFIFPPDTQVTQSPSSLSASVGDRVTITCITSTDIDVDMNWYQQKPGKPPKLLISQGNTLRPGVPSRFSSSGSGTDFTFTISSLQPEDFATYYCLQSDNLPLTFGQGTKLEIKRTVAAPSVFIFPPSDEQLKSGTASVVCLLNNFYPREAKVQWKVDNALQSGNSQESVTEQDSKDSTYSLSSTLTLSKADYEKHKVYACEVTHQGLSSPVTKSFNRGEC | 600 | 0.00043 | 710000 | 5.6 | 2.3e-05 | 4.2e+06
7 | DVD1596 (bispecific antibody, human IgG1, kappa, DVD-Ig, outer AB273, inner AB271, linker set 2; V1 wt hIgG1, V2 kappa; also called DVD1596H; DVD1596L) heavy: not shown light: DIQMTQSPSSLSASVGDRVTITCRASSGIISYIDWFQQKPGKAPKRLIYATFDLASGVPSRFSGSGSGTDYTLTISSLQPEDFATYYCRQVGSYPETFGQGTKLEIKRTVAAPSVFIFPPDTVVTQSPAFLSVTPGEKVTITCITSTDIDVDMNWYQQKPDQPPKLLISQGNTLRPGVPSRFSSSGSGTDFTFTISSLEAEDAATYYCLQSDNLPLTFGQGTKLEIKRTVAAPSVFIFPPSDEQLKSGTASVVCLLNNFYPREAKVQWKVDNALQSGNSQESVTEQDSKDSTYSLSSTLTLSKADYEKHKVYACEVTHQGLSSPVTKSFNRGEC | 510 | 0.00036 | 700000 | 3.3 | 1.3e-05 | 4.1e+06
8 | DVD1598 (bispecific antibody, human IgG1, kappa, DVD-Ig, outer AB273, inner AB272, linker set 2; V1 wt hIgG1, V2 kappa; also called DVD1598H; DVD1598L) heavy: not shown light: DIQMTQSPSSLSASVGDRVTITCRASSGIISYIDWFQQKPGKAPKRLIYATFDLASGVPSRFSGSGSGTDYTLTISSLQPEDFATYYCRQVGSYPETFGQGTKLEIKRTVAAPSVFIFPPETTVTQSPSSLSASVGDRVTITCITSTDIDVDMNWYQQKPGKPPKLLISQGNTLRPGVPSRFSSSGSGTDFTFTISSLQPEDFATYYCLQSDNLPLTFGQGTKLEIKRTVAAPSVFIFPPSDEQLKSGTASVVCLLNNFYPREAKVQWKVDNALQSGNSQESVTEQDSKDSTYSLSSTLTLSKADYEKHKVYACEVTHQGLSSPVTKSFNRGEC | 1200 | 0.00074 | 630000 | 5.1 | 1.8e-05 | 3.5e+06
9 | DVD1600 (bispecific antibody, human IgG1, kappa, V1 wt hIgG1, V2 kappa; also called DVD1600H; DVD1600L) heavy: not shown light: EIVLTQSPDFQSVTPKEKVTITCRASQDIGSELHWYQQKPDQPPKLLIKYASHSTSGVPSRFSGSGSGTDFTLTINGLEAEDAGTYYCHQTDSLPYTFGPGTKVDIKRTVAAPSVFIFPPDIQMTQSPSSLSASVGDRVTITCRASGNIHNYLTWYQQTPGKAPKLLIYNAKTLADGVPSRFSGSGSGTDYTFTISSLQPEDIATYYCQHFWSIPYTFGQGTKLQITRTVAAPSVFIFPPSDEQLKSGTASVVCLLNNFYPREAKVQWKVDNALQSGNSQESVTEQDSKDSTYSLSSTLTLSKADYEKHKVYACEVTHQGLSSPVTKSFNRGEC | 550 | 9.4e-05 | 170000 | ≤ 3.8 | < 1e-06 | 2.8e+06
10 | DVD1602 (bispecific antibody, human IgG1, kappa, V1 wt hIgG1, V2 kappa; also called DVD1602H; DVD1602L) heavy: not shown light: EIVLTQSPDFQSVTPKEKVTITCRASQDIGSELHWYQQKPDQPPKLLIKYASHSTSGVPSRFSGSGSGTDFTLTINGLEAEDAGTYYCHQTDSLPYTFGPGTKVDIKRTVAAPSVFIFPPDIQMTQSPSSLSASVGDRVTITCRASGNIHNYLTWYQQTPGKAPKLLIYNAKTLADGVPSRFSGSGSGTDYTFTISSLQPEDIATYYCQHFWSIPYTFGQGTKLQITRTVAAPSVFIFPPSDEQLKSGTASVVCLLNNFYPREAKVQWKVDNALQSGNSQESVTEQDSKDSTYSLSSTLTLSKADYEKHKVYACEVTHQGLSSPVTKSFNRGEC | 180 | 2.3e-05 | 130000 | 5.1 | 1.4e-05 | 2.7e+06
11 | DVD1604 (bispecific antibody, human IgG1, kappa, DVD-Ig, outer AB274, inner AB270, linker set 2; V1 wt hIgG1, V2 kappa; also called DVD1604H; DVD1604L) heavy: not shown light: EIVLTQSPDFQSVTPKEKVTITCRASQDIGSELHWYQQKPDQPPKLLIKYASHSTSGVPSRFSGSGSGTDFTLTINGLEAEDAGTYYCHQTDSLPYTFGPGTKVDIKRTVAAPSVFIFPPDTQVTQSPSSLSASVGDRVTITCITSTDIDVDMNWYQQKPGKPPKLLISQGNTLRPGVPSRFSSSGSGTDFTFTISSLQPEDFATYYCLQSDNLPLTFGQGTKLEIKRTVAAPSVFIFPPSDEQLKSGTASVVCLLNNFYPREAKVQWKVDNALQSGNSQESVTEQDSKDSTYSLSSTLTLSKADYEKHKVYACEVTHQGLSSPVTKSFNRGEC | 290 | 0.00037 | 1.3e+06 | 2.6 | 9.7e-06 | 3.8e+06
